{"source": "patent US20160200789A1", "about": "“IL4 CONJUGATED TO ANTIBODIES AGAINST EXTRACELLULAR MATRIX COMPONENTS” (PHILOGEN S.P.A., priority 2013, published 2016)", "molecules": {"B1": {"name": "F8-IL4: antibody F8 (anti-EDA of fibronectin) in diabody format fused at the C-terminus to murine interleukin 4 via 15 amino acid linker (protein)", "chain": "EVQLLESGGGLVQPGGSLRLSCAASGFTFSLFTMSWVRQAPGKGLEWVSAISGSGGSTYYADSVKGRFTISRDNSKNTLYLQMNSLRAEDTAVYYCAKSTHLYLFDYWGQGTLVTVSSGGSGGEIVLTQSPGTLSLSPGERATLSCRASQSVSMPFLAWYQQKPGQAPRLLIYGASSRATGIPDRFSGSGSGTDFTLTISRLEPEDFAVYYCQQMRGRPPTFGQGTKVEIKSSSSGSSSSGSSSSGHIHGCDKNHLREIIGILNEVTGEGTPCTEMDVPNVLTATKNTTESELVCRASKVLRIFYLKHGKTPCLKKNSSVLMELQRLFRAFRCLDSSISCTMNESKSTSLKDFLESLKSIMQMDYS", "modifications": "Synthetic sequence Amino acid sequence of F8 -(murine) IL4 of PCT/EP2014/053998", "notes": "antibody F8 (anti-EDA of fibronectin) in diabody format fused at the C-terminus to murine interleukin 4 via 15 amino acid linker"}}, "key": {"[1]": {"test_system": "collagen induced arthritis in DBA/1J mice", "test": "Aggressive collagen induced arthritis model, F8-IL4 dose comparison (Example 3)", "type": "in vivo", "description": "Animals showing signs of joint inflammation with a total score of 1 to 3 were included in the therapy experiments. When the joint inflammation was too high at day one (more than one paw, score>3) mice were not included in the therapy experiments. Experiments were performed under a project license granted by the Veterinaeramt des Kantons Zuerich, Switzerland (208/2010).\nThe dose for TNFR-Fc was determined by calculations from the human ENBREL dose and the approximate local TNF concentration compared with the bioactivity of the fusion protein."}, "F9 teratocarcinoma": {"test_system": "F9 teratocarcinoma", "test": "Quantitative biodistribution in F9 tumour-bearing mice", "type": "in vivo, mouse", "description": "The in vivo targeting performance was assessed by quantitative biodistribution where 15 μg of radioiodinated fusion protein was injected i.v. into the lateral tail vein of immunocompetent 11-12 week old female Sv129Ev mice (obtained from Charles River [Germany]), bearing sub-cutaneously grafted F9 tumours (for labelling protocol, see (Pasche et al. 2011)). Mice were sacrificed 24 hours after injection, organs were excised, weighed and radioactivity was measured using a Packard Cobra γ counter."}, "[2]": {"test_system": "cytokine levels in ear tissue", "test": "Cytokine levels in ear tissue extracts of psoriasis models (multiplex bead flow cytometry)", "type": "in vivo, mouse", "description": "Ear tissue was obtained at the end of therapy from each mouse and processed to a tissue extract as previously described (Schwager et al., 2013). The end of therapy was day 13 for the IMQ model described in Example 14 and day 15 for the CHS model described in Example 15. Briefly, ears were cut into small pieces and suspended in a 50 mM Tris, 150 mM NaCl buffer containing complete protease inhibitor cocktail (Roche Diagnostics, Rotkreuz, Switzerland). For homogenization, a 5 mm stainless steel bead (Qiagen, Hombrechtikon, Switzerland) was added, and the tissue was homogenized in a QIAGEN Tissue Lyzer (4× 1 minute, 4° C., 30 Hz). After centrifugation (5 min, 4° C., 16,000 g), supernatant was harvested […]. Protein concentrations were determined by BCA assay (Thermo Fisher Scientific, IL) and total protein concentration of all samples was normalized. To quantify cytokine levels of treated and control mice, a multiplex bead-based flow cytometry analysis was performed using the mouse Th1/Th2/Th17/Th22 13plex FlowCytomix Multiplex kit (eBioscience). FACS analysis was performed on a BD FACS Canto (BD Bioscience, Allschwil, Switzerland) and data evaluated with FlowCytomix Pro 3.0 software (eBioscience). Using standard curves generated by the FlowCytomix Pro 3.0 software with control samples, a level of quantification was assigned for each cytokine."}, "[3]": {"test_system": "experimental autoimmune encephalomyelitis (EAE) in C57/BL6 mice", "test": "Experimental autoimmune encephalomyelitis (EAE) model of multiple sclerosis", "type": "in vivo, mouse", "description": "36 C57/BL6 mice were immunized with MOG35-55/CFA and pertussis toxin by injection as reported in McCarthy et al. (2012) to induce experimental autoimmune encephalomyelitis (EAE), a model for multiple sclerosis (MS). Mice were scored daily and using a grading system from 0 to 5 reflecting progressive paralysis (McCarthy et al., 2012). Any mouse with newly developed clinical signs of EAE was assigned to one of three groups in a balanced manner. Treatment started on the day of assignment to a group (first day after EAE onset). Mice in the F8-murine IL4 treatment group (SEQ ID NO: 21) (indicated by circles in FIG. 18) received a total of three i.v. injection of 200 μg each (200 μl of a 1 mg/ml solution), every third day (see black arrows in FIG. 18). Mice in the Fingolimod (FTY720) treatment group (indicated by squares in FIG. 18) received daily oral gavage at a dose of 1 mg/kg (see open arrows in FIG. 18)."}, "CT26 colon carcinoma": {"test_system": "CT26 colon carcinoma", "test": "Therapy studies in CT26 tumour-bearing mice", "settings": "90 μg i.v. every 48 h", "excerpt": "Data represent mean tumour volumes (±SEM), n=5 mice per group. […] Data represent mean tumour volumes (±SEM), n=5 mice per group.\nIn the description of the below experiments, data are expressed as the mean (±SEM). Differences in tumor volume, % ID/g and Tumor-to-blood ratio between therapeutic groups were compared using Graphpad Prism's repeated measures (mixed model) ANOVA analysis.\nMice were sacrificed when tumour volumes reached a maximum of 2000 mm^3.\nIn order to study a second immunocompetent mouse model of cancer, the inventors focused on Balb/c mice (obtained from Elevage Janvier [France]) bearing subcutaneous CT26 tumours of colorectal origin."}, "A20 lymphoma": {"test_system": "A20 lymphoma", "test": "Biodistribution and ex vivo immunofluorescence in A20 tumour-bearing mice", "settings": "after i.v. administration"}, "[4]": {"settings": "15 μg radioiodinated protein i.v., 24 hours"}, "[5]": {"settings": "IMQ and CHS models, end of therapy"}}}
{"molecule": "B1", "values": [{"measurement": "reduction in paw swelling compared with murine version of ENBREL", "setting": "[1]; 100 μg vs TNFR-Fc 30 μg", "result": "at least equivalent"}, {"measurement": "tolerability", "setting": "[1]; 100 μg/injection", "result": "well tolerated"}, {"measurement": "weight change", "setting": "[1]; 100 μg/injection", "result": "lost less weight than mice receiving only the buffer vehicle (PBS)"}, {"measurement": "disease-modulating effect (arthritic score)", "setting": "[1]; 100 μg/injection i.v., days 1, 4 and 7", "result": "at least as potent as the murine version of Enbrel (TNFR-Fc)"}, {"measurement": "paw swelling", "setting": "[1]; 100 μg, vs buffer vehicle or low dose", "result": "less severe paw swelling than mice receiving only the buffer vehicle or low amounts of F8-IL4"}, {"measurement": "accumulation at the tumour site (% ID/g)", "setting": "F9 teratocarcinoma; [4]", "result": "preferential accumulation"}, {"measurement": "tumour-to-blood ratio", "setting": "F9 teratocarcinoma; [4]", "result": 12}, {"measurement": "clearance from the blood stream", "setting": "F9 teratocarcinoma; 24 hours after i.v. injection", "result": "fast clearance from the blood stream"}, {"measurement": "IL2 level in ear tissue", "setting": "[2]; [5]", "result": "do not appear to show a change in concentration"}, {"measurement": "IL10 level in ear tissue", "setting": "[2]; [5]", "result": "up-regulated"}, {"measurement": "IL13 level in ear tissue", "setting": "[2]; [5]", "result": "up-regulated"}, {"measurement": "IL27 level in ear tissue", "setting": "[2]; [5]", "result": "up-regulated"}, {"measurement": "IL-1 alpha level in ear tissue", "setting": "[2]; IMQ-induced psoriasis model", "result": "may be down-regulated"}, {"measurement": "EAE severity compared with fingolimod", "setting": "[3]; fingolimod 1 mg/kg daily oral gavage", "result": "not significantly different"}, {"measurement": "EAE severity compared with PBS", "setting": "[3]; three i.v. injections of 200 μg, every third day", "result": "significantly reduced EAE severity"}, {"measurement": "therapeutic performance", "setting": "CT26 colon carcinoma", "result": "superior therapeutic performance compared to KSF-IL4"}, {"measurement": "accumulation around tumour neo-vascular structures", "setting": "A20 lymphoma", "result": "preferential accumulation"}]}
